Patent publication US20130217582, “Library Compositions and Methods for Acyclic Identification of Aptamers” (published 2013)

Target: Coagulation factor IXa (FIXa) (Homo sapiens, UniProt P00740;P00740 P00740:47-191,P00740:227-461)
Assay: EMSA; estimated by mobility shift compared to a known FIXa aptamer; native PAGE 4 C; T7 transcript starts with GG before F5
Conditions: tags: Haematologic Technologies; immobilized on con-A beads for partitioning; putative G/U quadruplex

Chain of Coagulation factor IXa (FIXa) (P00740 47-191, chain 1 of 2): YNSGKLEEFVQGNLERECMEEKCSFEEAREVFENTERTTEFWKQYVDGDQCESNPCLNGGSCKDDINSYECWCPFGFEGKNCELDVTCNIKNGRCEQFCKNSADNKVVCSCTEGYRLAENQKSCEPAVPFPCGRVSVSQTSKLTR
Chain of Coagulation factor IXa (FIXa) (P00740 227-461, chain 2 of 2): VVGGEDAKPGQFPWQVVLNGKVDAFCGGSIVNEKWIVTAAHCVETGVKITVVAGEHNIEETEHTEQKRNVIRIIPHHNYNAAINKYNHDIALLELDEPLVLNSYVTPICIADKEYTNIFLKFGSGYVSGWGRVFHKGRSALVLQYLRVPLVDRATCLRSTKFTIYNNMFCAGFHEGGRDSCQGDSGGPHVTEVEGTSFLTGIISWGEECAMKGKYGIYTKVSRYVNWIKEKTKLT

Row | Binder | Kd [nM]
1 | FIXa aptamer rank 3 (SEQ 122/152) (ssRNA) RNA: ACGACGCUCUUCCGAUCUAUGGUCAUACGCGCAGGCUGGAGGUAUUACCCCCCGGGCAAGCUAACGGAGCUCGUAUGC | ~700
2 | FIXa aptamer rank 2 (SEQ 114/151) (ssRNA) RNA: ACGACGCUCUUCCGAUCUAUGGAGGGCAGCCCGGUAGUCGCCCACGGGGAACGCGUCAAGCUAACGGAGCUCGUAUGC | ~220
3 | FIXa aptamer rank 1 (SEQ 133/150) (ssRNA) RNA: ACGACGCUCUUCCGAUCUAUGGUUCCAGUCGGUGAACUUCCUGAGUCCGGUGUGUGCAAGCUAACGGAGCUCGUAUGC | ~220
